Laboratory results as given in article PMC3817407.
Values joined by “and” are separate entries in the source; they are usually repeats but may differ in a detail not shown here. Equal entries are not always repeated.

T1: ECF17_1458
T1 chain: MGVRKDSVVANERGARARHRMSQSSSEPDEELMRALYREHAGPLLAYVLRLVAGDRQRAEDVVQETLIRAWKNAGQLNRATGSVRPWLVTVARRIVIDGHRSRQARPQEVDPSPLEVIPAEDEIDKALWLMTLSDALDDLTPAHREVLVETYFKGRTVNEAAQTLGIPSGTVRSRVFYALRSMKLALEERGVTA

T2: ECF30_35
T2 chain: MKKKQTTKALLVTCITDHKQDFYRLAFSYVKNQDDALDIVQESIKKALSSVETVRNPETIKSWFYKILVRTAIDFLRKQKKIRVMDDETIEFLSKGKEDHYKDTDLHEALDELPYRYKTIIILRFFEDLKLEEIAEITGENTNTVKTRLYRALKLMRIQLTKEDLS

T3: ECF16_973
T3 chain: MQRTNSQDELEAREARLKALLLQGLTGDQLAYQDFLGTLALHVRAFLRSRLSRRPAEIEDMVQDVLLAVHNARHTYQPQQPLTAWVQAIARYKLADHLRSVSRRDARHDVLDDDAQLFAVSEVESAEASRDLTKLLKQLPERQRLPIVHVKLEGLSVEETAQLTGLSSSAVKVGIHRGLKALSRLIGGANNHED

T4: ECF31_34
T4 chain: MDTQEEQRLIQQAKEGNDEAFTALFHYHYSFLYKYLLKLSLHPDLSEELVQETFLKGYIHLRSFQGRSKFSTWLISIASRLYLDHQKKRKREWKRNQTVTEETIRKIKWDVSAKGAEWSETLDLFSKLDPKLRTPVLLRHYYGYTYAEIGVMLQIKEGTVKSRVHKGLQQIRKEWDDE

T5: ECF28_1088
T5 chain: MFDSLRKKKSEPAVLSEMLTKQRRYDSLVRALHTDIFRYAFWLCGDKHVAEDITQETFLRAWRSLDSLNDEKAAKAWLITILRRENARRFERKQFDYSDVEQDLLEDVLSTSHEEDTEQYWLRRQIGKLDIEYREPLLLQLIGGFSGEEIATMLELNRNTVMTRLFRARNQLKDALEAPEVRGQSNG

T6: ECF14_3200
T6 chain: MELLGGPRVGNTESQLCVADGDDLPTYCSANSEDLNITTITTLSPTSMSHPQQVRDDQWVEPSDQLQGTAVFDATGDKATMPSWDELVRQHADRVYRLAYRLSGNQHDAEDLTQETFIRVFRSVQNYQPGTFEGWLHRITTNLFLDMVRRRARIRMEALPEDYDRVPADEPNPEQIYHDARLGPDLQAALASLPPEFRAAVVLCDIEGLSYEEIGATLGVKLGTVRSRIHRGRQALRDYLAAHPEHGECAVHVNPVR

T7: ECF25_1643
T7 chain: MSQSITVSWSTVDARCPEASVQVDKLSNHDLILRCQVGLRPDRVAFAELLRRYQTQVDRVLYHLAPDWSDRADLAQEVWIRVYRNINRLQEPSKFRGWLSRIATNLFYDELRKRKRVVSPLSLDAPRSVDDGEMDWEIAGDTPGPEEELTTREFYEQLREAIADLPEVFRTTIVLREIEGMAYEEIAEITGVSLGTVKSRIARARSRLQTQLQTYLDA

T8: ECF20_992
T8 chain: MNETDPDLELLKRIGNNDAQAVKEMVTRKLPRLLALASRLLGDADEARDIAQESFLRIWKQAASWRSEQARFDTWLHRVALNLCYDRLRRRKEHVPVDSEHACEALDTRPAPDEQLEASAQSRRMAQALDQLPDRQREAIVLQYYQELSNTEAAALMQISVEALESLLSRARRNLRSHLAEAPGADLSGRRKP

T9: ECF02_2817
T9 chain: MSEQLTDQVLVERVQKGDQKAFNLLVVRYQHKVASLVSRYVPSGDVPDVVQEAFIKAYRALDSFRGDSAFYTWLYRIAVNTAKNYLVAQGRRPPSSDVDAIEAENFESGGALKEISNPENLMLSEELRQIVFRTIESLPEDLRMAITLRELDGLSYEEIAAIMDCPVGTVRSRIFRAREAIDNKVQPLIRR

T10: ECF27_4265
T10 chain: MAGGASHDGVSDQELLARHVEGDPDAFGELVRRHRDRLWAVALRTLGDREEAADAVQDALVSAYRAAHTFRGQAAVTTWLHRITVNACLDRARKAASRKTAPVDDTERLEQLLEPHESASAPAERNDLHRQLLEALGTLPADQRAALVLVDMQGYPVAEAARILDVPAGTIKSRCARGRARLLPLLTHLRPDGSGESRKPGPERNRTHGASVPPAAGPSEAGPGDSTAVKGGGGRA

T11: ECF28_1040
T11 chain: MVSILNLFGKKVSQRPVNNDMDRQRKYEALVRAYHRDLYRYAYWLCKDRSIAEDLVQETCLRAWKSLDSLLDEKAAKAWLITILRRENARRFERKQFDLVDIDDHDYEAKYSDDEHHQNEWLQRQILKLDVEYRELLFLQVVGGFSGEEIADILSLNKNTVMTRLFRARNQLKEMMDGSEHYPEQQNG

T12: ECF33_423
T12 chain: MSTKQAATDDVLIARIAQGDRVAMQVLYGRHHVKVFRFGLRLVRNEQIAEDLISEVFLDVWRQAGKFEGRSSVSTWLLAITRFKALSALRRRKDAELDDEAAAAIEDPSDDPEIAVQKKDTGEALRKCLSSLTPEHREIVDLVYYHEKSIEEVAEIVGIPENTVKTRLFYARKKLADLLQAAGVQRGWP

T13: ECF03_1198
T13 chain: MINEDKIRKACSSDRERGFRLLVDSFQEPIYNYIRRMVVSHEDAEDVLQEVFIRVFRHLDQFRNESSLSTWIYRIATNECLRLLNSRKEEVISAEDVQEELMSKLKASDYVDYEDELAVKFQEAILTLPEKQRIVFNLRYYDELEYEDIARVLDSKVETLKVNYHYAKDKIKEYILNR

B1: AS16_973 (protein)
chain: MKTDDLIALLAAGEGPVPRHAVGRRMAVAALGGLTAALLLTITLYGVRSDITEVAQTPLFWGKVAFPTSLALIGLWLTSRLARPGGKGAAGWKMLGLPLLLVWCGAAVSIAGAPVDARADLLFGRTWRTCALNIALLSVPAFVTVFWALKGLAPTRLRLAGAAGGLLAGSSATVAYCLHCPEMGVPFWGVWYVLGMLVPTVLGAWWGPRMLRW
B2: AS25_1643_cl43 (protein)
chain: MTTDSNFNDPCRRQFSRDLPQKMARHTNEATGAMDMVKRDRFELLSAYLGGEVTAAERRQVEDWPANDVAVQRLYSRLLKLRQGIRTMPIPTAQQSPETTAEQVFAKVNRRSRLAWKLGGAAVAACVIGAVTNWLPGRQTGIPQLAQQPQEQPTQAVTTPDALPMIALNNPVIEIPKAAVASPTKFIQPQPQLGEIPPDIN
B3: AS16_3622 (protein)
chain: MMKTDELISLLATAEGPVDRHALARRLGLALLAGLLGALLLTVALYGVRSDLAEVARTPLFWAKVALPTSLALLGLWLTQRLARPGVRGGALWGLLGVPLLLVWLGAAISLFGAPPEARADLIFGRTWRTCALNITLLSTPVFIAVFWALRGLAPTRLRQAGAAGGLLAGSTATLVYCLHCPEMGVPFWGLWYLLGMLVPTLLGAVLGPRLLRW
B4: AS22_1147 (protein)
chain: MELDDIAVAWRSLEQRLDQHAALAGQVLGDLRSHAARAHLRPLWLSQSAQLLCAIALSGLVAHSWLAFPEQAAAIVGGVLLQIWCVALAASAARQLWLLSQLDFARPLLQTQRALAQLRRWRTRVAPWLGVAFWVLWVAVADAAWRALTGRSLPYAWLLCNLLVGVLGGIGTWLGYRRLQRSGHPWLERLDTVHAGRSVARTETLLEQIARFQRE
B5: AS22_4450 (protein)
chain: MELDDMKHAWQTLEQRLDQQAAQTGQLLGVVHEETVRSSLRPLWVAQTAQLLCALALAIVSARSWIPHTDQPVAVIGGVLLQAWCMALAISAMVQLQLLTQFNVAGPLLRTQHALARLRRWRTRVAPWLGVAFWVLWIAVADALWRALTGQTLPTDWLVLNLLVGVAGGIGTWLGFRRLQRAQHPWLERIDRAHAGTGVIRAERMLEEIARFQRD
B6: AS02_915 (protein)
chain: MEKTGQEWVSASVDGETDRQTLAELAADTDSHAKWQRYHLMGDAMRDELPQAMPLDLSARIAAALEDEPTILAPKVEREATQAPSRAVVVPFMRQLGQYGIAAAVALMAVVGVQNYQSTQDDAPLPVLNTRPLVGTATPVSLQTGPVANQNQGNANDQLLEQRRRINAYLQDHMLQQRLNTGAVVDDNSEVTPIPVNR
B7: AS20_992 (protein)
chain: MTPERFVHLADAYGADLQRWPSAERAAAQALLDCGDAQAVAALRQAHWLDSQLDRYQVPAPSPALAQRIIAAAQQPGAPFWSRYAGWLASLGWVGVGLTGVAAGMLAVALSLPLSTSAEALPSVFDQSDAEFVLSINAEEAEQ

Target: T1, ECF17_1458

Binder | fold repression
B1 | 1.11
B2 | 2.2
B3 | 4.75
B4 | 2.2
B5 | 1.23
B6 | 2.74
B7 | 1.5

Target: T2, ECF30_35

Binder | fold repression
B1 | 0.463
B2 | 0.929
B3 | 0.992
B4 | 2.04
B5 | 1.54
B6 | 2.79
B7 | 1.61

Target: T3, ECF16_973

Binder | fold repression
B1 | 58.6
B2 | 1.22
B3 | 131
B4 | 2.57
B5 | 1.71
B6 | 3.34
B7 | 1.7

Target: T4, ECF31_34

Binder | fold repression
B1 | 0.696
B2 | 1.58
B3 | 2.85
B4 | 2.31
B5 | 1.48
B6 | 3.89
B7 | 1.96

Target: T5, ECF28_1088

Binder | fold repression
B1 | 1.04
B2 | 1.48
B3 | 2.18
B4 | 2.19
B5 | 1.18
B6 | 2.38
B7 | 2.27

target: ECF27_1331

Binder | fold repression
B1 | 0.929
B2 | 1.96
B3 | 3.55
B4 | 3.07
B5 | 1.37
B6 | 4.27
B7 | 2.11

Target: T6, ECF14_3200

Binder | fold repression
B1 | 0.918
B2 | 5.41
B3 | 8.73
B4 | 5.04
B5 | 1.94
B6 | 6.23
B7 | 2.04

Target: T7, ECF25_1643

Binder | fold repression
B1 | 0.594 and 0.667
B2 | 4.28 and 3.89
B3 | 1.55 and 1.67
B4 | 2.46 and 1.99
B5 | 1.63 and 1.34
B6 | 3.46 and 2.7
B7 | 1.63 and 1.33

Target: T8, ECF20_992

Binder | fold repression
B1 | 0.636
B2 | 1.99
B3 | 2.48
B4 | 2.35
B5 | 1.54
B6 | 4.44
B7 | 169

Target: T9, ECF02_2817

Binder | fold repression
B1 | 0.448
B2 | 4.05
B3 | 1.37
B4 | 2.38
B5 | 1.98
B6 | 5.22
B7 | 1.74

Target: T10, ECF27_4265

Binder | fold repression
B1 | 0.412
B2 | 0.954
B3 | 1.45
B4 | 1.86
B5 | 1.4
B6 | 2.08
B7 | 1.1

Target: T11, ECF28_1040

Binder | fold repression
B1 | 1.39
B2 | 1.09
B3 | 3.02
B4 | 1.78
B5 | 1.4
B6 | 2.03
B7 | 2.12

Target: T12, ECF33_423

Binder | fold repression
B1 | 0.683
B2 | 1.23
B3 | 1.87
B4 | 1.76
B5 | 1.24
B6 | 2.28
B7 | 1.32

Target: T13, ECF03_1198

Binder | fold repression
B1 | 0.72
B2 | 1.92
B3 | 2.71
B4 | 2.82
B5 | 2.46
B6 | 3.28
B7 | 1.53
